Results on 9 sequences are retold here after the supplement of paper PMC11246515.

A short description of the data set: total protein half-life in vivo (active degradation + dilution); higher = more stable protein.
The mark [1] stands for this setting: E. coli NCM3722 delta-clpP, growth: N-lim chemostat, doubling time 6 h.
Setting [2] is: E. coli NCM3722 delta-lon, growth: N-lim chemostat, doubling time 6 h.
The mark [3] stands for this setting: E. coli NCM3722 delta-smpB, growth: N-lim chemostat, doubling time 6 h.
Setting [4] is: wild type E. coli NCM3722, growth: C-lim chemostat, doubling time 3 h.
[5] abbreviates: wild type E. coli NCM3722, growth: C-lim chemostat, doubling time 6 h.
Where [6] appears, read: wild type E. coli NCM3722, growth: C-lim chemostat, doubling time 12 h.
The mark [7] stands for this setting: wild type E. coli NCM3722, growth: N-lim chemostat, doubling time 6 h.
[8] abbreviates: wild type E. coli NCM3722, growth: N-lim chemostat, doubling time 12 h.
Setting [9] is: wild type E. coli NCM3722, growth: P-lim chemostat, doubling time 6 h.
The mark [10] stands for this setting: wild type E. coli NCM3722, growth: P-lim chemostat, doubling time 12 h.
[11] abbreviates: E. coli NCM3722 delta-clpP delta-lon delta-hslV, growth: N-lim chemostat, doubling time 6 h.
The mark [12] stands for this setting: E. coli NCM3722 delta-hslV, growth: N-lim chemostat, doubling time 6 h.

± gives the standard deviation of the averaged measurements.

As to “MDRFPRSDSIVQPRAGLQTYMAQVYGWMTVGLLLTAFVAWYAANSAAVMELLFTNRVFLIGLIIAQLALVIVLSAMIQKLSAGVTTMLFMLYSALTGLTLSSIFIVYTAASIASTFVVTAGMFGAMSLYGYTTKRDLSGFGNMLFMALIGIVLASLVNFWLKSEALMWAVTYIGVIVFVGLTAYDTQKLKNMGEQIDTRDTSNLRKYSILGALTLYLDFINLFLMLLRIFGNRR [P0AAC4]”, the “total protein half-life in vivo” value came to 3.08 h under setting [1]; 2.51 h under setting [2]; 2.75 h under setting [3]; 2.15 ± 0.5 h under setting [4]; 2.98 h under setting [5]; 6.02 h under setting [6]. For the same sequence, the “total protein half-life in vivo” value runs as follows: under setting [7], 3.09 h; under setting [8], 5.33 h; under setting [9], 3.85 ± 0.28 h; under setting [10], 6.88 ± 0.24 h.

For “MEIYENENDQVEAVKRFFAENGKALAVGVILGVGALIGWRYWNSHQVDSARSASLAYQNAVTAVSEGKPDSIPAAEKFAAENKNTYGALASLELAQQFVDKNELEKAAAQLQQGLADTSDENLKAVINLRLARVQVQLKQADAALKTLDTIKGEGWAAIVADLRGEALLSKGDKQGARSAWEAGVKSDVTPALSEMMQMKINNLSI”, the “total protein half-life in vivo” value reads like this: under setting [11], 5.43 ± 0.11 h; under setting [1], 5.4 ± 0.35 h; under setting [12], 5.99 ± 0.76 h; under setting [2], 6.64 ± 0.78 h; under setting [3], 5.52 ± 0.16 h; under setting [4], 2.83 ± 0.14 h. Besides, the “total protein half-life in vivo” value is, setting by setting: under setting [5], 4.7 ± 0.38 h; under setting [6], 10.3 ± 0.96 h; under setting [7], 5.8 ± 0.6 h; under setting [8], 11.9 ± 0.17 h; under setting [9], 4.55 ± 0.6 h; under setting [10], 8.84 ± 0.18 h.

Take “MTEKVKQHAAPVTGSDEIDIGRLVGTVIEARWWVIGITTVFALCAVVYTFFATPIYSADALVQIEQNSGNSLVQDIGSALANKPPASDAEIQLIRSRLVLGKTVDDLDLDIAVSKNTFPIFGAGWDRLMGRQNETVKVTTFNRPKEMADQVFTLNVLDNKNYTLSSDGGFSARGQAGQMLKKEGVTLMVEAIHASPGSEFTVTKYSTLGMINQLQNSLTVTENGKDAGVLSLTYTGEDREQIRDILNSIARNYQEQNIERKSAEASKSLAFLAQQLPEVRSRLDVAENKLNAFRQDKDSVDLPLEAKAVLDSMVNIDAQLNELTFKEAEISKLYTKVHPAYRTLLEKRQALEDEKAKLNGRVTAMPKTQQEIVRLTRDVESGQQVYMQLLNKEQELKITEASTVGDVRIVDPAITQPGVLKPKKGLIILGAIILGLMLSIVGVLLRSLFNRGIESPQVLEEHGISVYASIPLSEWQKARDSVKTIKGIKRYKQSQLLAVGNPTDLAIEAIRSLRTSLHFAMMQAQNNVLMMTGVSPSIGKTFVCANLAAVISQTNKRVLLIDCDMRKGYTHELLGTNNVNGLSEILIGQGDITTAAKPTSIAKFDLIPRGQVPPNPSELLMSERFAELVNWASKNYDLVLIDTPPILAVTDAAIVGRHVGTTLMVARYAVNTLKEVETSLSRFEQNGIPVKGVILNSIFRRASAYQDYGYYEYEYKSDAK”: the “total protein half-life in vivo” value stood at 4.27 ± 0.44 h under setting [2], 2.13 ± 0.52 h under setting [3] and 2.75 h under setting [4].

For “MSTPLQGIKVLDFTGVQSGPSCTQMLAWFGADVIKIERPGVGDVTRHQLRDIPDIDALYFTMLNSNKRSIELNTKTAEGKEVMEKLIREADILVENFHPGAIDHMGFTWEHIQEINPRLIFGSIKGFDECSPYVNVKAYENVAQAAGGAASTTGFWDGPPLVSAAALGDSNTGMHLLIGLLAALLHREKTGRGQRVTMSMQDAVLNLCRVKLRDQQRLDKLGYLEEYPQYPNGTFGDAVPRGGNAGGGGQPGWILKCKGWETDPNAYIYFTIQEQNWENTCKAIGKPEWITDPAYSTAHARQPHIFDIFAEIEKYTVTIDKHEAVAYLTQFDIPCAPVLSMKEISLDPSLRQSGSVVEVEQPLRGKYLTVGCPMKFSAFTPDIKAAPLLGEHTAAVLQELGYSDDEIAAMKQNHAI”, the “total protein half-life in vivo” value under setting [9] came to 5.48 h.

Consider “MTSLVVPGLDTLRQWLDDLGMSFFECDNCQALHLPHMQNFDGVFDAKIDLIDNTILFSAMAEVRPSAVLPLAADLSAINASSLTVKAFLDMQDDNLPKLVVCQSLSVMQGVTYEQFAWFVRQSEEQISMVILEANAHQLLLPTDDEGQNNVTENYFLH [P0AAY6]”, for which the “total protein half-life in vivo” value is, setting by setting: under setting [11], 2.64 ± 2.3 h; under setting [12], 2.7 h; under setting [2], 4.39 h; under setting [3], 1.74 ± 1.4 h; under setting [6], 1.21 h; under setting [7], 0.868 h.

As for “MIEFDNLTYLHGKPQGTGLLKANPEDFVVVEDLGFEPDGEGEHILVRILKNGCNTRFVADALAKFLKIHAREVSFAGQKDKHAVTEQWLCARVPGKEMPDLSAFQLEGCQVLEYARHKRKLRLGALKGNAFTLVLREVSNRDDVEQRLIDICVKGVPNYFGAQRFGIGGSNLQGAQRWAQTNTPVRDRNKRSFWLSAARSALFNQIVAERLKKADVNQVVDGDALQLAGRGSWFVATTEELAELQRRVNDKELMITAALPGSGEWGTQREALAFEQAAVAAETELQALLVREKVEAARRAMLLYPQQLSWNWWDDVTVEIRFWLPAGSFATSVVRELINTTGDYAHIAE”, the “total protein half-life in vivo” value is, setting by setting: under setting [11], 5.52 ± 0.077 h; under setting [1], 5.85 ± 0.93 h; under setting [12], 5.53 ± 0.64 h; under setting [2], 6.03 ± 0.79 h; under setting [3], 5.8 ± 0.21 h; under setting [4], 3.11 ± 0.11 h. In addition, the “total protein half-life in vivo” value is, setting by setting: under setting [5], 5.78 ± 0.067 h; under setting [6], 12.8 ± 1.1 h; under setting [7], 4.93 ± 0.21 h; under setting [8], 9.75 ± 0.26 h; under setting [9], 5.99 ± 0.14 h; under setting [10], 12.6 ± 0.88 h.

With “MSRKQLALFEPTLVVQALKEAVKKLNPQAQWRNPVMFIVWIGSLLTTCISIAMASGAMPGNALFSAAISGWLWITVLFANFAEALAEGRSKAQANSLKGVKKTAFARKLREPKYGAAADKVPADQLRKGDIVLVEAGDIIPCDGEVIEGGASVDESAITGESAPVIRESGGDFASVTGGTRILSDWLVIECSVNPGETFLDRMIAMVEGAQRRKTPNEIALTILLIALTIVFLLATATLWPFSAWGGNAVSVTVLVALLVCLIPTTIGGLLSAIGVAGMSRMLGANVIATSGRAVEAAGDVDVLLLDKTGTITLGNRQASEFIPAQGVDEKTLADAAQLASLADETPEGRSIVILAKQRFNLRERDVQSLHATFVPFTAQSRMSGINIDNRMIRKGSVDAIRRHVEANGGHFPTDVDQKVDQVARQGATPLVVVEGSRVLGVIALKDIVKGGIKERFAQLRKMGIKTVMITGDNRLTAAAIAAEAGVDDFLAEATPEAKLALIRQYQAEGRLVAMTGDGTNDAPALAQADVAVAMNSGTQAAKEAGNMVDLDSNPTKLIEVVHIGKQMLMTRGSLTTFSIANDVAKYFAIIPAAFAATYPQLNALNIMCLHSPDSAILSAVIFNALIIVFLIPLALKGVSYKPLTASAMLRRNLWIYGLGGLLVPFIGIKVIDLLLTVCGLV”, the “total protein half-life in vivo” value is, setting by setting: under setting [1], 5.05 h; under setting [12], 5.02 h; under setting [2], 6.41 h; under setting [3], 3.79 h; under setting [4], 2.79 h; under setting [6], 11.5 h. Further, the “total protein half-life in vivo” value by setting is: under setting [8], 7.13 ± 1.7 h; under setting [9], 7.01 ± 1.2 h; under setting [10], 10.4 ± 0.27 h.

For “MRPAGRSNNQVRPVTLTRNYTKHAEGSVLVEFGDTKVLCTASIEEGVPRFLKGQGQGWITAEYGMLPRSTHTRNAREAAKGKQGGRTMEIQRLIARALRAAVDLKALGEFTITLDCDVLQADGGTRTASITGACVALVDALQKLVENGKLKTNPMKGMVAAVSVGIVNGEAVCDLEYVEDSAAETDMNVVMTEDGRIIEVQGTAEGEPFTHEELLILLALARGESNPL [P0CG19]”, the “total protein half-life in vivo” value is, setting by setting: under setting [11], 5.037 ± 0.026 h; under setting [1], 4.44 ± 0.39 h; under setting [12], more than 8 h; under setting [2], 4.79 ± 0.48 h; under setting [3], 4.48 ± 0.11 h; under setting [6], 11.7 ± 3.8 h. For the same sequence, the “total protein half-life in vivo” value reads like this: under setting [7], 3.47 ± 0.77 h; under setting [8], 6.88 ± 0.082 h; under setting [9], 5.58 ± 0.93 h.

As to “MIGRLRGIIIEKQPPLVLIEVGGVGYEVHMPMTCFYELPEAGQEAIVFTHFVVREDAQLLYGFNNKQERTLFKELIKTNGVGPKLALAILSGMSAQQFVNAVEREEVGALVKLPGIGKKTAERLIVEMKDRFKGLHGDLFTPAADLVLTSPASPATDDAEQEAVAALVALGYKPQEASRMVSKIARPDASSETLIREALRAAL [P0A809]”, the “total protein half-life in vivo” value by setting is: under setting [11], 5.02 ± 0.64 h; under setting [1], 4.88 ± 0.9 h; under setting [12], 5.46 ± 0.47 h; under setting [2], 4.88 ± 0.49 h; under setting [3], 5.59 ± 0.069 h; under setting [4], 2.99 ± 0.28 h. In addition, the “total protein half-life in vivo” value is, setting by setting: under setting [5], 5.04 ± 0.43 h; under setting [6], 10.3 ± 3.1 h; under setting [7], 4.95 ± 0.26 h; under setting [8], 7.6 ± 0.43 h; under setting [9], 3.73 ± 0.86 h; under setting [10], 10.13 ± 0.068 h.
